From patent publication US20260035426 come the findings set out here.

This series has as its target SB1902-C2.

Chain of SB1902-C2 (chain, as listed by the source, chain 1 of 2): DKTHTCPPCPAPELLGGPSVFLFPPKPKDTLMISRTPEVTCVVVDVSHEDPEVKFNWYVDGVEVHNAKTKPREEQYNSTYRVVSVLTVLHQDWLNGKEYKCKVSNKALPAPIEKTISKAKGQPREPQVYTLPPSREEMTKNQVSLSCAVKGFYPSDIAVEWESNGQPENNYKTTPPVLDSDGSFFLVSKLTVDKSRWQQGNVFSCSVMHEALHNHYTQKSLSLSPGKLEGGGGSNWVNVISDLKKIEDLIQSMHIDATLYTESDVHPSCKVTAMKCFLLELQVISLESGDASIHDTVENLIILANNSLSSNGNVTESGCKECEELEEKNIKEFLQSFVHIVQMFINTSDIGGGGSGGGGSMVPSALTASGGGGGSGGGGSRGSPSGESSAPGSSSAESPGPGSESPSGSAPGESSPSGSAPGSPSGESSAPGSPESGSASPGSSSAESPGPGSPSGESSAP
Chain of SB1902-C2 (chain, as listed by the source, chain 2 of 2): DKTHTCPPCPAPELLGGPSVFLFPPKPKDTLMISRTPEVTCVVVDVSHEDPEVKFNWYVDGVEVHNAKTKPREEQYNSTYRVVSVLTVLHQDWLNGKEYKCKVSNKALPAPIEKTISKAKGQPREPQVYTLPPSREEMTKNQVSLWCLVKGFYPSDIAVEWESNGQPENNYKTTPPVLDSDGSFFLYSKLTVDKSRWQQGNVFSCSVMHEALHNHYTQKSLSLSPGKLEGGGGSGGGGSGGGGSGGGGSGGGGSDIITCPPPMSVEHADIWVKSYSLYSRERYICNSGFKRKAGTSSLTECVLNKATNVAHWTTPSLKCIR

B1: recombinant human MMP2 (protein)
chain: YNFFPRKPKWDKNQITYRIIGYTPDLDPETVDDAFARAFQVWSDVTPLRFSRIHDGEADIMINFGRWEHGDGYPFDGKDGLLAHAFAPGTGVGGDSHFDDDELWTLGEGQVVRVKYGNADGEYCKFPFLFNGKEYNSCTDTGRSDGFLWCSTTYNFEKDGKYGFCPHEALFTMGGNAEGQPCKFPFRFQGTSYDSCTTEGRTDGYRWCGTTEDYDRDKKYGFCPETAMSTVGGNSEGAPCVFPFTFLGNKYESCTSAGRSDGKMWCATTANYDDDRKWGFCPDQGYSLFLVAAHEFGHAMGLEHSQDPGALMAPIYTYTKNFRLSQDDIKGIQELYGASPDIDLGTGPTPTLGPVTPEICKQDIVFDGIAQIRGEIFFFKDRFIWRTVTPRDKPMGPLLVATFWPELPEKIDAVYEAPQEEKAVFFAGNEYWIYSASTLERGYPKPLTSLGLPPDVQRVDAAFNWSKNKKTYIFAGDKFWRYNEVKKKMDPGFPKLIADAWNAIPDNLDAVVDLQGGGHSYFFKGAYYLKLENQSLKSVKFGSIKSDWLGC
Regarding B1, the “digestion efficiency by SDS-PAGE” value is “about 90% of the prodrug SB1902-C2 was digested”.
